The numbers were not newly measured in paper PMC10379010, “Short Peptides of Innate Immunity Protein Tag7 (PGLYRP1) Selectively Induce Inhibition or Activation of Tumor Cell Death via TNF Receptor” (International Journal of Molecular Sciences, 2023), which cites them from elsewhere.

This data set deals with TNFR1. The arrangement: method as in 3 sources, ref [14] = [14]; PMID 32093269; doi:10.3390/cells9020488; 14. Romanova E.A. Sharapova T.N. Telegin G.B. Minakov A.N. Chernov A.S. Ivanova O.K. Bychkov M.L. Sashchenko L.P. Yashin D.V. A 12-mer Peptide of Tag7 (PGLYRP1) Forms a Cytotoxic Complex with Hsp70 an ||| ref [15] = [15]; PMID 34163464; doi:10.3389/fimmu.2021.622471; 15. Telegin G.B. Chernov A.S. Kazakov V.A. Romanova E.A. Sharapova T.N. Yashin D.V. Gabibov A.G. Sashchenko L.P. A 8-mer Peptide of PGLYRP1/Tag7 Innate Immunity Protein Binds to TNFR1 Receptor and Inh ||| ref [10],[11] = [10]; PMID 26183779; doi:10.1074/jbc.M115.639732; 10. Yashin D.V. Ivanova O.K. Soshnikova N.V. Sheludchenkov A.A. Romanova E.A. Dukhanina E.A. Tonevitsky A.G. Gnuchev N.V. Gabibov A.G. Georgiev G.P. Tag7 (PGLYRP1) in Complex with Hsp70 Induces Altern || [11]; PMID 32636466; doi:10.1038/s41598-020-68088-x; 11. Sharapova T.N. Romanova E.A. Soshnikova N.V. Belogurov A.A. Jr. Lomakin Y.A. Sashchenko L.P. Yashin D.V. Autoantibodies from SLE patients induce programmed cell death in murine fibroblast cells th. The note with it: death under action of a specific ligand of TNFR1 or DNA-hydrolyzing autoantibodies; ref [10],[11].

B1: Tag7: innate immunity protein Tag7 (PGLYRP1), ligand of the TNFR1 receptor; recombinant (protein)
chain: QETEDPACCSPIVPRNEWKALASECAQHLSLPLRYVVVSHTAGSSCNTPASCQQQARNVQHYHMKTLGWCDVGYNFLIGEDGLVYEGRGWNFTGAHSGHLWNPMSIGISFMGNYMDRVPTPQAIRAAQGLLACGVAQGALRSNYVLKGHRDVQRTLSPGNQLYHLIQNWPHYRSP
Consider B1, for which the “Inhibition of death of tumor cells, Tag7” value is “inhibits the death of tumor cells”.
